Source: US20200024330A1

Key:
Test in all cases: cell-based or functional assay
[1] = target: HIV-1 92RW020 envelope glycoprotein (Env) on pseudovirus (HIV-1)
[2] = target: HIV-1 92TH021 envelope glycoprotein (Env) on pseudovirus (HIV-1)
[3] = target: HIV-1 92UG024 envelope glycoprotein (Env) on pseudovirus (HIV-1)
[4] = target: HIV-1 Env of isolate MGRM-AE-004 (HIV-1)
[5] = target: HIV-1 Env of isolate MGRM-AE-005 (HIV-1)
[6] = target: HIV-1 Env of isolate MGRM-AE-006 (HIV-1)
[7] = target: HIV-1 Env of isolate MGRM-AE-007 (HIV-1)
[8] = target: HIV-1 Env of isolate MGRM-AE-008 (HIV-1)
[9] = target: HIV-1 Env of isolate MGRM-AG-001 (HIV-1)
[10] = target: HIV-1 Env of isolate MGRM-AG-002 (HIV-1)
[11] = target: HIV-1 Env of isolate MGRM-AG-003 (HIV-1)
[12] = target: HIV-1 Env of isolate MGRM-AG-005 (HIV-1)
[13] = target: HIV-1 Env of isolate MGRM-AG-011 (HIV-1)
[14] = target: HIV-1 Env of isolate MGRM-AG-012 (HIV-1)
[15] = target: HIV-1 Env of isolate MGRM-AG-013 (HIV-1)
[16] = target: HIV-1 Env of isolate MGRM-Chronic-B-010 (HIV-1)
[17] = target: HIV-1 Env of isolate MGRM-Chronic-B-012 (HIV-1)
[18] = target: HIV-1 Env of isolate MGRM-Chronic-B-017 (HIV-1)
[19] = target: HIV-1 Env of isolate MGRM-Chronic-B-018 (HIV-1)
[20] = target: HIV-1 Env of isolate MGRM-Chronic-B-023 (HIV-1)
[21] = target: HIV-1 Env of isolate MGRM-Chronic-B-024 (HIV-1)
[22] = target: HIV-1 Env of isolate MGRM-F1-013 (HIV-1)
[23] = target: HIV-1 Env of isolate MGRM-G-001 (HIV-1)
[24] = target: HIV-1 Env of isolate MGRM-G-006 (HIV-1)
[25] = target: HIV-1 Env of isolate MGRM-G-009 (HIV-1)
[26] = target: HIV-1 NL43 envelope glycoprotein (Env) on pseudovirus (HIV-1)
[27] = target: HIV-1 Env of isolate JRFL (HIV-1)
[28] = target: HIV-1 Env of isolate MGRM-AE-006 (CRF01_AE), on pseudovirus (HIV-1)
[29] = target: HIV-1 Env of isolate MGRM-Chronic-B-011 (HIV-1)
[30] = target: HIV-1 Env of isolate MGRM-Chronic-B-020 (HIV-1)
[31] = target: HIV-1 Env of isolate MGRM-G-004 (HIV-1)
[32] = target: HIV-1 Env of isolate MGRM-G-011 (HIV-1)
[33] = target: HIV-1 Env of isolate MGRM-G-013 (HIV-1)
[34] = target: HIV-1 Env of isolate MGRM-G-014 (HIV-1)
[35] = target: HIV-1 Env of isolate MGRM-G-015 (HIV-1)
[36] = target: HIV-1 Env of isolate MGRM-G-016 (HIV-1)
[37] = target: HIV-1 Env of isolate MGRM-G-017 (HIV-1)
[38] = target: HIV-1 Env of isolate MGRM-G-019 (HIV-1)
[39] = target: HIV-1 Env of isolate MGRM-G-027 (HIV-1)
[40] = target: aMLV envelope (negative control pseudovirus)
[41] = target: HIV-1 Env of isolate MGRM-AG-006 (HIV-1)
[42] = target: HIV-1 Env of isolate MGRM-AG-008 (HIV-1)
[43] = target: HIV-1 Env of isolate MGRM-AG-009 (HIV-1)
[44] = target: HIV-1 Env of isolate MGRM-G-025 (subtype G) (HIV-1)

**Q.** Which results are given for 1496_C09 (PG9) (TCN-109) (antibody)?
**A.** IC50 (ug/ml), neutralizing activity [1]: 0.161 µg/mL; IC50 neutralization [1]: 0.161 µg/mL; IC80, neutralization [1]: 1.04 µg/mL; IC90 (pseudovirus neutralization) [1]: 6.55 µg/mL; IC90, neutralization [1]: 3.4 µg/mL; IC50 (ug/ml), neutralizing activity [2]: 0.103 µg/mL; IC50 neutralization [2]: 0.103 µg/mL; IC80, neutralization [2]: 0.448 µg/mL; IC90 (pseudovirus neutralization) [2]: 1.99 µg/mL; IC90, neutralization [2]: 1.07 µg/mL; IC95, neutralization [2]: 2.43 µg/mL; IC50 (ug/ml), neutralizing activity [3]: 1.91 µg/mL; IC50 neutralization [3]: 1.91 µg/mL; IC50 (µg/mL), pseudovirus neutralization [4]: 0.009 µg/mL; IC50 (µg/ml), pseudovirus neutralization [4]: 0.01 µg/mL; IC50 (µg/mL), pseudovirus neutralization [5]: 0.282 µg/mL; IC50 (µg/ml), pseudovirus neutralization [5]: 0.16 µg/mL; IC50 (µg/mL), pseudovirus neutralization [6]: 0.063 µg/mL; IC50 (µg/ml), pseudovirus neutralization [6]: 0.05 µg/mL; IC50 (µg/mL), pseudovirus neutralization [7]: 0.18 µg/mL; IC50 (µg/mL), pseudovirus neutralization [8]: 31.5 µg/mL; IC50 (µg/ml), pseudovirus neutralization [8]: 10.6 µg/mL; IC50 (µg/mL), pseudovirus neutralization [9]: 17.1 µg/mL; IC50 (µg/ml), pseudovirus neutralization [9]: 8.83 µg/mL; IC50 (µg/mL), pseudovirus neutralization [10]: 0.076 µg/mL; IC50 (µg/ml), pseudovirus neutralization [10]: 0.04 µg/mL; IC50 (µg/ml), pseudovirus neutralization [11]: 9.71 µg/mL; IC50 (µg/ml), pseudovirus neutralization [12]: 29.7 µg/mL; IC50 (µg/mL), pseudovirus neutralization [13]: 0.007 µg/mL; IC50 (µg/ml), pseudovirus neutralization [13]: 0.01 µg/mL; IC50 (µg/mL), pseudovirus neutralization [14]: 22.8 µg/mL; IC50 (µg/ml), pseudovirus neutralization [14]: 1.37 µg/mL; IC50 (µg/mL), pseudovirus neutralization [15]: 0.259 µg/mL; IC50 (µg/ml), pseudovirus neutralization [15]: 0.23 µg/mL; IC50 (µg/ml), pseudovirus neutralization [16]: 0.004 µg/mL; IC50 (µg/ml), pseudovirus neutralization [17]: 0.91 µg/mL; IC50 (µg/ml), pseudovirus neutralization [18]: 0.32 µg/mL; IC50 (µg/ml), pseudovirus neutralization [19]: 0.16 µg/mL; IC50 (µg/ml), pseudovirus neutralization [20]: 0.04 µg/mL; IC50 (µg/ml), pseudovirus neutralization [21]: 0.18 µg/mL; IC50 (µg/mL), pseudovirus neutralization [22]: 1.25 µg/mL; IC50 (µg/ml), pseudovirus neutralization [23]: 0.16 µg/mL; IC50 (µg/ml), pseudovirus neutralization [24]: 0.51 µg/mL; IC50 (µg/ml), pseudovirus neutralization [25]: 4.9 µg/mL; IC50 (ug/ml), neutralizing activity [26]: 0.687 µg/mL; IC50 neutralization [26]: 0.687 µg/mL

**Q.** With 5114_A19 (PGT-128) (antibody) as the substance, how does the IC50 [27] read?
**A.** 0.007 µg/mL

**Q.** What about the IC50, single-round pseudovirus neutralization [28] of the same substance?
**A.** 0.044 µg/mL

**Q.** What about the IC50 [16] of the same substance?
**A.** 0.004 µg/mL

**Q.** And the IC50 [29]?
**A.** 0.02 µg/mL

**Q.** What about the IC50 [17] of the same substance?
**A.** 0.026 µg/mL

**Q.** What about the IC50 [18] of the same substance?
**A.** > 50 µg/mL

**Q.** And the IC50 [19]?
**A.** 0.02 µg/mL

**Q.** What about the IC50 [30] of the same substance?
**A.** 0.007 µg/mL

**Q.** What about the IC50 [20] of the same substance?
**A.** > 50 µg/mL

**Q.** What about the IC50 [21] of the same substance?
**A.** > 50 µg/mL

**Q.** And the IC50, pseudovirus neutralization [23]?
**A.** 0.019 µg/mL

**Q.** What about the IC50, pseudovirus neutralization [31] of the same substance?
**A.** > 50 µg/mL

**Q.** What about the IC50, pseudovirus neutralization [24] of the same substance?
**A.** > 50 µg/mL

**Q.** And the IC50, pseudovirus neutralization [25]?
**A.** > 50 µg/mL

**Q.** And the IC50, pseudovirus neutralization [32]?
**A.** 8.21 µg/mL

**Q.** What about the IC50, pseudovirus neutralization [33] of the same substance?
**A.** 0.995 µg/mL

**Q.** And the IC50, pseudovirus neutralization [34]?
**A.** 0.004 µg/mL

**Q.** And the IC50, pseudovirus neutralization [35]?
**A.** > 50 µg/mL

**Q.** And the IC50, pseudovirus neutralization [36]?
**A.** > 50 µg/mL

**Q.** What about the IC50, pseudovirus neutralization [37] of the same substance?
**A.** 0.319 µg/mL

**Q.** What about the IC50, pseudovirus neutralization [38] of the same substance?
**A.** 0.01 µg/mL

**Q.** What about the IC50, pseudovirus neutralization [39] of the same substance?
**A.** 0.313 µg/mL

**Q.** And the IC50, pseudovirus neutralization [40]?
**A.** > 50 µg/mL

**Q.** Which results are given for 5136_H01 (PGT-131) (antibody)?
**A.** IC50 [27]: 0.454 µg/mL; IC50, single-round pseudovirus neutralization [28]: 0.026 µg/mL; IC50 [16]: 0.016 µg/mL; IC50 [29]: 6.47 µg/mL; IC50 [17]: 15.7 µg/mL; IC50 [18]: > 50 µg/mL; IC50 [19]: > 50 µg/mL; IC50 [30]: 0.053 µg/mL; IC50 [20]: > 50 µg/mL; IC50 [21]: > 50 µg/mL; IC50, pseudovirus neutralization [23]: 0.404 µg/mL; IC50, pseudovirus neutralization [31]: > 50 µg/mL; IC50, pseudovirus neutralization [24]: > 50 µg/mL; IC50, pseudovirus neutralization [25]: > 50 µg/mL; IC50, pseudovirus neutralization [32]: > 50 µg/mL; IC50, pseudovirus neutralization [33]: > 50 µg/mL; IC50, pseudovirus neutralization [34]: 4.31 µg/mL; IC50, pseudovirus neutralization [35]: > 50 µg/mL; IC50, pseudovirus neutralization [36]: > 50 µg/mL; IC50, pseudovirus neutralization [37]: > 50 µg/mL; IC50, pseudovirus neutralization [38]: > 50 µg/mL; IC50, pseudovirus neutralization [39]: 2.9 µg/mL; IC50, pseudovirus neutralization [40]: > 50 µg/mL

**Q.** For PGT-141 (4964_G22; 4993_K13) (antibody), which IC50 [7] is on record?
**A.** 33.1 µg/mL

**Q.** And the IC50 [8]?
**A.** 0.101 µg/mL

**Q.** What about the IC50 [9] of the same substance?
**A.** 18 µg/mL

**Q.** What about the IC50 [10] of the same substance?
**A.** 0.049 µg/mL

**Q.** And the IC50 [11]?
**A.** > 50 µg/mL

**Q.** What about the IC50 [12] of the same substance?
**A.** 0.497 µg/mL

**Q.** And the IC50 [41]?
**A.** > 50 µg/mL

**Q.** What about the IC50 [42] of the same substance?
**A.** 19.2 µg/mL

**Q.** What about the IC50 [43] of the same substance?
**A.** > 50 µg/mL

**Q.** What about the IC50 [13] of the same substance?
**A.** 0.118 µg/mL

**Q.** What about the IC50 [14] of the same substance?
**A.** > 50 µg/mL

**Q.** And the IC50 [15]?
**A.** > 50 µg/mL

**Q.** And the neutralization IC50 [44]?
**A.** > 50 µg/mL

**Q.** And the neutralization IC50 [40]?
**A.** > 50 µg/mL
